Patent US7244591

Target: T1, recombinant human parathyroid hormone (hPTH), intact molecule (1-84), P01270
T1 chain: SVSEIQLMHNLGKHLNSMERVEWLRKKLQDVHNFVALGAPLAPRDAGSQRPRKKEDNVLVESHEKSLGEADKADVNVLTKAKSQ

B1: Yapsin 1 (protein)
chain: ADGYEEIIITNQQSFYSVDLEVGTPPQNVTVLVDTGSSDLWIMGSDNPYCSSNSMGSSRRRVIDKRDDSSSGGSLINDINPFGWLTGTGSAIGPTATGLGGGSGTATQSVPASEATMDCQQYGTFSTSGSSTFRSNNTYFSISYGDGTFASGTFGTDVLDLSDLNVTGLSFAVANETNSTMGVLGIGLPELEVTYSGSTASHSGKAYKYDNFPIVLKNSGAIKSNTYSLYLNDSDAMHGTILFGAVDHSKYTGTLYTIPIVNTLSASGFSSPIQFDVTINGIGISDSGSSNKTLTTTKIPALLDSGTTLTYLPQTVVSMIATELGAQYSSRIGYYVLDCPSDDSMEIVFDFGGFHINAPLSSFILSTGTTCLLGIIPTSDDTGTILGDSFLTNAYVVYDLENLEISMAQARYNTTSENIEIITSSVPSAVKAPGYTNTWSTSASIVTGGNIFTVNSSQTASFSGNLTTSTASATSTSSKRN
- cleavage of secreted hPTH into the truncated d1 form (27-84), SDS-PAGE of culture supernatants of wild-type and yps1-disrupted strains: the main protease causative of the cleavage of hPTH in the early culture stage is Yapsin 1
